Paper doi:10.1101/2020.05.06.071340

T1: TOC1-CCT (Arabidopsis, UniProt Q9LKL2 533-575)
T1 chain: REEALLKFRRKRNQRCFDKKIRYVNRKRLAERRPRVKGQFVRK

T2: CCTN (Arabidopsis, UniProt Q9LKL2 533-565)
T2 chain: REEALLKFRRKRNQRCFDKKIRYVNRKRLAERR

T3: CCT (NMR construct) (Arabidopsis, UniProt Q9LKL2 533-590)
T3 sequence: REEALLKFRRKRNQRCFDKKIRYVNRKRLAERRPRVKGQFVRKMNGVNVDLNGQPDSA


Legend:
[1] = target: T1, TOC1-CCT; assay: ITC
[2] = target: T1, TOC1-CCT; assay: EMSA
[3] = target: T2, CCTN; assay: NMR
[4] = target: T3, CCT (NMR construct); assay: NMR

Binder	Kd [1] [nM]	Kd [2] [nM]	binding result [3]	binding result [4]
AAAUAAAUGGAGGGGAAAAAUAAAU (ssRNA) [G-rich RNA probe]	124 ± 8	110 ± 6		
UGGAGGGGA (ssRNA) [NMR RNA]			binds	binds
